Measurements reported in US20090186816.

How the values were obtained:
[1] = test system: F-ZFPNARP-meth-NES (ZFPNARP fused to human DNMT3a catalytic domain residues 592-909) (synthetic construct); assay: cell_activity
[2] = test system: F-ZFPcont-meth-NES (ZFPcont fused to human DNMT3a catalytic domain residues 592-909) (synthetic construct); assay: cell_activity; details: NARP cells; scale: fold lower CpG methylation than F-ZFPNARP-meth-NES

Sequence | activity (% of clones with CpG methylation) ([1]; bisulfite sequencing around site in NARP cybrid cells, CpGs within site protected) | activity [2] | activity ([1]; wt cells, indistinguishable from background, scale: fold lower CpG methylation than on NARP site)
GCCCGGGCC (double strand) [NARP T8993G mtDNA site] | 23 | 6 | 
GCCCTGGCC (double strand) [wild-type mtDNA 8993 site] |  |  | 6
